Data on 57 variants can be found in the RNAGym collection of RNA variant scans (doi:10.7554/elife.80360).

The chains are these.
B1: Hammerhead Ribozyme (parent)
chain: ACCGGAUGUGCUUUCCGGUCUGAUGAGUCCGUGAGGACGAAACAG

In the data set the parent is B1. As to the kind of experiment: self-cleavage, relative activity (ratio to wild type); higher = more cleavage; co-transcriptional.
With ACCGGAUGUGUUUUCCGGUCUGAUGAGUGCGUGAGGACGAAACAG, the self-cleavage turned out to be 0.646.
In the case of ACCGGAUGUGCGUUCCGGUCUCAUGAGUCCGUGAGGACGAAACAG, the self-cleavage amounted to 0.326.
For ACCGGAUGUGCUUUCCGGUCUGAUGAGUCGGCGAGGACGAAACAG, the self-cleavage stood at 0.581.
The value for ACCGGAUGUGCUUUCCGGUCUGAUGAGUUCGUGAGGAUGAAACAG was 1.04; that for ACUGGAUGUGCUUUCCGGUCUUAUGAGUCCGUGAGGACGAAACAG was 0.381.
For the variant GCCGGAUGUGCUUUCCGGUCUGAUGAGUCCGUGAGGACGAAACAA, the self-cleavage worked out at 1.11.
The same measure for ACCGGAUGUGCUUUCCGGUCUGAUGAGUUCGUGAUGACGAAACAG: 0.744; for CCCGGAUGUGCUUUCAGGUCUGAUGAGUCCGUGAGGACGAAACAG: 0.453; for ACCGGAGGUGCUUUCCGGUCUGUUGAGUCCGUGAGGACGAAACAG: 0.228.
On to ACCGGAUGUGCUUUCCGAUCUGAUGACUCCGUGAGGACGAAACAG, for which the self-cleavage was found to be 0.43.
The same measure for ACCGGGUGUGCUUUCCGGUCUGGUGAGUCCGUGAGGACGAAACAG: 0.272.
With ACCCGAUGUGCUUUCCGGUCUGAUGAGUCUGUGAGGACGAAACAG, the self-cleavage came to 0.703.
For the variant ACCGGAUGUGCUUUCCGGUCUGAUGAGUCCGUGAGGUCGAAAAAG, the self-cleavage amounted to 0.31.
The same measure for ACCGGUUGUGCUUUCCGGUCUGAUGAGUCCGUGAGGAGGAAACAG: 0.458.
The value for ACCGGAUGUGCUUUCCGGUCUGAUGAGUCCUGGAGGACGAAACAG was 0.871; that for ACCGGAUGUGCUUUCCGGUCUGAUCAGUCCCUGAGGACGAAACAG was 0.339.
For the variant ACCGGAUGUGCUUUCCGGUCUGAUGAGUCCGUGAGGACAAAACAA, the self-cleavage came out at 0.371.
The same measure for ACCGGAUGUGCUUUCCGUUCUGAUGAGUCCCUGAGGACGAAACAG: 0.685.
As to AUCGGAUGUGCUUUGCGGUCUGAUGAGUCCGUGAGGACGAAACAG, the self-cleavage stood at 0.385.
In the case of ACCGGAUGUGCUUUCCGGACUGAUGAGUCCGUGAGCACGAAACAG, the self-cleavage was 0.367.
The value for ACCCGAUGUGCUUUCCGGUCUGAUGAGUCCGUGUGGACGAAACAG was 0.585.
Take ACCGGAUGUGCUUUCCGGUCUGAUGAGUACGUGAGGACCAAACAG: the self-cleavage was found to be 0.326.
The same measure for ACCGGGUGUGCUUUCCGGUCUGAUGAGUCCGUGAGGACCAAACAG: 0.297; for CCCGGAUGUGCUCUCCGGUCUGAUGAGUCCGUGAGGACGAAACAG: 0.513.
The same measure for ACCGGAUGAGCUUUCCGGUUUGAUGAGUCCGUGAGGACGAAACAG: 0.557; for ACCAGAUGUGCUUUCCGGUCUGAUGGGUCCGUGAGGACGAAACAG: 0.35; for ACCGGAUGUGCUUUCCGGUCUGACGAGUCCGUGAGGAGGAAACAG: 0.601.
On to ACCGGAUGUGGUUUCCGGUCGGAUGAGUCCGUGAGGACGAAACAG, for which the self-cleavage was 0.847.
The value for ACCGGAUGUGCUUUCCGGUCCAAUGAGUCCGUGAGGACGAAACAG was 0.335; that for ACCGGAUGUGCUUUCCGGUCUGAUGAGUCCGUGAUGGCGAAACAG was 0.679; that for ACCGGAUGUGCUUUCCGGUCAGAUGAGUCCGUGAGGACGACACAG was 0.437.
For the variant GCCGGAUGUGCUUUCCGGUCUGAUGAGUCCGUCAGGACGAAACAG, the self-cleavage was determined as 1.67.
ACCGGUUGUGCUUUCCGAUCUGAUGAGUCCGUGAGGACGAAACAG: the self-cleavage was 0.34.
The value for ACCGGAUGUGCUUUCCGUUCUGAUGAAUCCGUGAGGACGAAACAG was 0.567; that for ACCGGAUGUGCUUUACGGUCUGAUGAGUCCGUGAGGACAAAACAG was 0.337; that for ACCGGAUGUGCUUUCCGGACUGAUGAGUCCGUGAGGACAAAACAG was 0.297.
ACCGGAUGUGCUUUCCGGUCUGAUGCGUCCGUGAGGACCAAACAG: the self-cleavage turned out to be 0.45.
Turning to ACCGCAUGUGCUUUCCGGUCUGAUGAGUCCGUGAAGACGAAACAG, the self-cleavage was determined as 0.362.
The same measure for ACCGGAUGUGCUUUCCGGUCAGAUGAGUCCGUGAGGACGAAUCAG: 0.402; for ACCGGAUGUGCUUUCCGGUUUGAUGAGUCCGUGAGGACGAAAUAG: 0.325; for CCCGGAUGUGCUUUCCGGUCUGAUGAGUCCGAGAGGACGAAACAG: 0.363.
The value for CCCGGAUGUGCUUUCCGGUCUGAGGAGUCCGUGAGGACGAAACAG was 0.368; that for ACCGGAUGUGCUUUCCGGUGUGAUGAGUCCGUGAUGACGAAACAG was 0.353; that for ACAGGAUGUGCUUUCCGGUCUGAUGAGUCCGUGCGGACGAAACAG was 0.359.
Take ACCGGAUGUGCUCUCCGGUCUGGUGAGUCCGUGAGGACGAAACAG: the self-cleavage is 0.419.
The value for ACCGGAUGUGCUUUCCGGUCUGAUGAGUCCGUGCGGAGGAAACAG was 0.436; that for ACCGGAUGUGCUUUCCGGACUGAUGAGUCCGUGAGGACGAAACAA was 0.354.
The value for ACCGGAUGUGCUUUCCGGUCUGUUGAGUCCGUCAGGACGAAACAG was 0.262; that for UCCGGGUGUGCUUUCCGGUCUGAUGAGUCCGUGAGGACGAAACAG was 0.459.
The value for ACCGGAUGUGCUUUCCGGUCUGAUGAGUCCGUAAGGACGUAACAG was 0.525; that for ACCAGAUGUGCUUUCCGGUCUUAUGAGUCCGUGAGGACGAAACAG was 0.302.
Regarding ACCAGAUGUGCUUUCCGGUUUGAUGAGUCCGUGAGGACGAAACAG, the self-cleavage was found to be 0.358.
With ACCGGAUGUGCUUUCCGGUCUGAUGAGUCCGUGAGGCCGAAGCAG, the self-cleavage was 0.235.
The value for ACCGGAUGUGCUUUCUGGUCUGAUGAGUCCGUGAGGACGUAACAG was 0.301.
The value for ACCGGAAGUGCUUUCCGGUCUGAUAAGUCCGUGAGGACGAAACAG was 0.32; that for ACCGGAUGUGCUUCCCGGUCUGAUGAGUCCGUGAGGACGAAAAAG was 0.279.
The same measure for ACCGGAUUUGCUUUCCGGUCUAAUGAGUCCGUGAGGACGAAACAG: 0.37.
